Legend:
GST-LSD1 = target: T1, GST-LSD1 (Homo sapiens, UniProt O60341); test: GST pulldown of HIS-tagged CoREST and mutants; assay type: binding; conditions: Coomassie Blue staining
T1 construct: made in house; host or cells: bacteria (inferred from 'similar procedure' to the His-tagged proteins)
Description: To identify domains of CoREST that are involved in physical interactions with LSD1, GST-LSD1 or GST was incubated with bacterially purified, HIS-tagged CoREST and its mutant derivatives. […] This places the putative LSD1-binding domain within the C-terminal functional domain of CoREST, somewhere between aa 293-381 of CoREST. […] We therefore speculate that the SANT2 domain may be involved in mediate binding to the nucleosomal substrate. Taken together, these findings are consistent with the idea that CoREST functions as a bridging protein. The weak stimulatory activity of the N-terminal CoREST (del1, aa 1-293) remains unclear at the present time.
GST and GSTLSD1 plamsids were kind gifts from Dr. Tadashi Baba's Lab in Japan (Iwase et al., 2004). Expression and purification of GST and GSTLSD1 proteins were done using similar procedure as outlined for purification of his-tagged recombinant proteins. For GST-bead pulldown experiment, 2 μg of each purified his-tagged wt or del CoREST proteins were incubated with 5 μg of bound GST and GSTLSD1 proteins at 4° C. for 4 hrs in a binding buffer (50 mM Tris, pH 8.0, 300 mM NaCl, 1 mM DTT, 0.5 mM EDTA and 0.1% NP-40). The beads were washed 3 times in the binding buffer, resuspended in 2×SDS protein sample buffer, boiled for 5 mins and loaded onto 15% SDS PAGE gel. The gel was then stained with Coomassie Blue.

LSD1 = target: T2, LSD1 (Homo sapiens, UniProt O60341); test: LSD1 demethylation assay on nucleosomal substrates (mononucleosomes), Western blotting; assay type: biochemical; conditions: CoREST deletion mutant
T2 construct: Full length (1-851aa) and C-terminal deleted (1-427 aa) human LSD1 cDNAs; 6xHis (N); made in house; host or cells: bacteria
Description: Preparation of mononucleosome. Mononucleosome was made according to a standard protocol (Tagami et al., 2004; Utley et al., 1996). Briefly, nuclear pellet from both TSA-treated or non-treated HeLa cells was homogenized for 60 times with type A pestle to obtain oligo-nucleosomes. The oligo-nucleosomes were then digested with micrococcal nuclease (40 units/mL) for 10 mins at 30° C. The nuclease is inactivated by 5 mM EDTA. Digested materials were spun at 14000 rpm for 3 mins. Resulting supernatant was spun again for additional 3 mins at the same speed. Supernatant from the second spin was subject to 10-25% glycerol gradient sedimentation. The monocleosome-containing fractions were identified by examining aliquots of fractions (treated with proteinase K) on DNA agarose gel. An aliquot of TSA-treated or non TSA-treated mononucleosome, a kind gift from Dr. Yoshihiro Nakatani's Lab in Dana Faber Cancer Institute, Harvard Medical School (Tagami et al., 2004), was used here as a control for the quality of mononucleosome made in our lab.
Demethylation assay. LSD1 demethylation activity on free histone or nucleosomal histone was carried out as previously reported (Shi et al., 2004). […] The demethylase activity of LSD1 under various conditions was evaluated by Western blotting using K4-H3 methylation-specific antibodies.

binding to LSD1 (GST-LSD1) | stimulatory activity on LSD1 demethylation (LSD1) | Molecule
did not |  | del 4: CoREST deletion mutant aa 105-293 (protein, left off: small tags and cut ends) GPQYQAVVPDFDPAKLARRSQERDNLGMLVWSPNQNLSEAKLDEYIAIAKEKHGYNMEQALGMLFWHKHNIEKSLADLPNFTPFPDEWTVEDKVLFEQAFSFHGKTFHRIQQMLPDKSIASLVKFYYSWKKTRTKTSVMDRHARKQKREREESEDELEEANGNNPIDIEVDQNKESKKEVPPTETVPQV
did not | ~30 % of the wildtype CoREST activity | del 1: CoREST deletion mutant aa 1-293 (protein, left off: small tags and cut ends) MVEKGPEVSGKRRGRNNAAASASAAAASAAASAACASPAATAASGAAASSASAAAASAAAAPNNGQNKSLAAAAPNGNSSSNSWEEGSSGSSSDEEHGGGGMRVGPQYQAVVPDFDPAKLARRSQERDNLGMLVWSPNQNLSEAKLDEYIAIAKEKHGYNMEQALGMLFWHKHNIEKSLADLPNFTPFPDEWTVEDKVLFEQAFSFHGKTFHRIQQMLPDKSIASLVKFYYSWKKTRTKTSVMDRHARKQKREREESEDELEEANGNNPIDIEVDQNKESKKEVPPTETVPQV
